Here are results for 24 sequences from a protein production outcome set (Wang et al. 2014).
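Note: failed if final PepcDB status was selected cloned or expressed and not failed if soluble or beyond.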

The nature of the data set: label from the status in PepcDB records.
As to “MFYTTKSSMNQHNIFFGSSHVVVPVTKPFPFSLDGHVEDEDNLESQYLQWLEERVDENNNINDDQSVGERDVGDDDIDRLADKFIARCHEKFLLEKVESYRRFQDMLARSL”, the protein production entry is given as “failed”.

As to “MGAAAAPEVNMELVGHFGGTTDAVDVAGNYAYVGQGQDFLILDITNPSSPVLVSKIMTEGFVRDIKVSRNYAYVADDDNGLVIVDISNPSSPTLKGSYNIPGYTYCITVSGNYAYVADNDGLVIVDISNPSDPILKGRYAGPTGDVAVYGNYAYVADWGNGLMIVDISNPSSPVLKGSYDTAGDIYGVSISGNYAYVADGDTGLVIVDISNPSSPTLKGNYNTAGIACDVSVLGNYAYVADNDNGLVIVDISDPSSPVLKGNGSTTGYAHGIEVSGNYAYVANSNTGLVIVDISNPSSPTLKGSCDTIVRAKSIAVSGNYAYIADWDNGLVIVDISNPSSPFLKGSCDTPRSAQGVAVSGNYAYVADDDGLVIVDISNPSFPILNKSYNTGGWAQGITVSGNYAYVIDMANGIFIVDISNPSSPILEGMYDTSPIIIENYDYTGSIWSVSVSGNYAYVADEGNGLLIVDISNPSSPILKGSYDTAGLAYDVAVSGNYAYVADSKNGLAIIDISNPSSPILVGNYNTSGYAECVSISGNYAYVAVDDSLVVVDISNPSSPILKGLYAGSAGDIAVSGNYVYASEGVNGLVILKANPESAFTVADFSSNITSGYAPLSIQFNDHSQNATSWNWDFGDGYNSTNQNPIHTYSSAGTYTVNLTVINENRTASKVAKIFVLNTSLEHHHHHH”, the protein production result is recorded as “failed”.

Take “MGAAKPIFVEHSIVIDRPAQQVYDYWRKLENLPQIMSHLESVTVLDDKRSRWVAKAPLGTHVEWEAEVVNDKPGERIGWHSLPGATVDNAGSVQFESLPDDKTRVHVALSYRPPAGPLGAAVAKLFGEEPSQQIAEDLQKFKATFEGLEHHHHHH”: the protein production entry is on record as “failed”.

In the case of “MGAGSQTTGAGQKKVQTITVGTGTQFPNICFIDEKGDLTGYDVELIKELDKRLPHYKFTFKTMEFSNLLVSLGQHKVDIVAHQMEKSKEREKKFLFNKVAYNHFPLKITVLQNNDTIRGIEDLKGKRVITSATSNGALVLKKWNEDNGRPFEIAYEGQGANETANQLKSGRADATISTPFAVDFQNKTSTIKEKTVGNVLSNAKVYFMFNKNEQTLSDDIDKALQEIIDDGTLKRLSLKWLGDDYSKEQYLEHHHHHH”, the protein production entry was “not failed”.

As for “MGANLNSAYAAGVKIAIVMGSKSDWATMQFAADVLTTLNVPFHVEVVSAHRTPDRLFSFAEQAEANGLHVIIAGAGGAAHLPGMLAAKTLVPVLGVPVQSAALSGVDSLYSIVQMPRGIPVGTLAIGKAGAANAALLAAQILALHDTELAGRLAHWRQSQTDDVLDNPDPREEA”, the protein production result was “not failed”.

Take “MGAVVVKDLRKRIGKKEILKGISFEIEEGEIFGLIGPNGAGKTTTLRIISTLIKPSSGIVTVFGKNVVEEPHEVRKLISYLPEEAGAYRNMQGIEYLRFVAGFYASSSSEIEEMVERATEIAGLGEKIKDRVSTYSKGMVRKLLIARALMVNPRLAILDEPTSGLDVLNAREVRKILKQASQEGLTILVSSHNMLEVEFLCDRIALIHNGTIVETGTVEELKERYKAQNIEEVFEEVVKCSENF”: the protein production entry is given as “not failed”.

“MGDASINIDKETVANYFVIKQGGPINRDHWTVTANTEEKTGEVSAAYPHNGQTISLIDGEINTFWHSKWQGGEVAPPYEIILDMGKENSVSQLGLIARQNALTSMNLEIYAGDDGETWNLIGKYFFDGSIKTEQMVPVKACDARWIRIYIPTLGSGSSVGHLAEIYVYGTDKLEHHHHHH”: the protein production entry is on record as “not failed”.

On to “MGDREKNVGFAASLNILFTIIELIGGILTNSLALLADAMHDFADSLALIVAWFAEKKAKKPATSKMTFGYRRLSLLSAAFATIVLIAGSLFILSQAIPRLLNPEPVNAEGMFLIAIIGVTINGLGYFRLKKGISQNEKILSWHLLEDILGWVVLLIGSVIIGFWNQPIIDPIMTIGFTIFVLWGVFKNAKETFNLLLEGVPEYIDIDEVKESILSVEGTKAVHDLHIWSLEGETDILTAHVVVEDEYLARPDKMRQSIKSRLEKHQIEHSTLELESEGFCSGTECIFELKG”, for which the protein production result is listed as “failed”.

“MGDSAPARIDTLEIKLLFAGDIMTHGPQIESAKCEGGRVYDFSSSFDTLASRIGAADLAIGNLETTFAGAPYSGYPTFSSPDAMGEALKNAGFDVLTTANNHTADKGKKGIIRTLDMLDSLGIAHTGSYRDIFDRDKMTPLILEVKGVRIAILAYTYGTNGMPVPAPTWVDPIDTVMIKKDLLRADSLGADYRIVQIHWGIEYRKEPDSEQLELARKLHRYGADAIIGSHPHVVQGSQWLKSDSKTSFVIYSMGNFISNQRKPAATRGGMLLSLTLRKVGDRITTHPDYQYVFVNKRTPQGKRVYRLLPVDPFSSDTLPSLPPEEQRDYKEFAKYYQMIPLVLIEREDNRIRNRLQVSQRAFLEHHHHHH”: the protein production result is reported as “failed”.

For “MGDTKVETISRLAQWRIENFGPCSFKKSDPFKVGIWNWHLSIERNRYLSVRLFPELSRVSKEQPPVAKFVLRVSNVGPNRRFYISPVYEKLLRTTDDCVWHVDSSFHGRFTIDVEFLDLKICPVNGGEASPVWPTDATMQSISTQTTLKCLSRMLEESILTDVIIHTADGTLSAHKAILSASSTVFKSMFHHDLMEKESSTIHIDDMSRESCMALLSYLYGNITQEEFWKHRLALLGAANKYDITDLKAACEESLMEDINSSNVLERLQEAWLYQLEKLKKGCLMYLFDFGKIYDVREEISSFFRQADRELMLEMFQEVLSVWKPV”, the protein production entry is recorded as “failed”.

Turning to “MGEGGEMGVGIFQIDMDWLHRWLRHRRGPGSGKTSGNRNLKPRLTPAAAQQDHRQMLCFMTLNAAVGVLIGICVGAALIFLDIGGLGARIGRAASPFVPVLLVVVPIASLFGAAAAASAILLMPYEKKFRDDDDDARGE”, the protein production entry was “failed”.

Take “MGEKELIRVGVVGTGYMGENHVRIYSEMEDVRLIGISDPNSSRVKELAARYETLPFSDHKKMFGKTNLDAISIAAPTTLHCPIVLDALEAGVDVLVEKPIADSVENATAMIESAEEMDRHLMVGHIERFNPAVLKLKEVVDSGVLGKIVSV”: the protein production result is listed as “failed”.

As to “MGFPRSIVLIAALLGGAVSGLTACSSFPFWSAGKEEDTDIKDEHADWGPAQFYAEAKHAMMDGSYDKAIKLYEKLEARYPFGDYATQAQIDVAFCYYKNNEPESAIAAVDRFIKLNPTEPHVDYAYYLRGLINYNRGIGFIDRWLPTDSSQRDPGSARDAYNDFETLLNKFPNSVYREDARQRAIALRNNLAMYDIHVADYYMRRRAYVAAIRRSAEVVQKYQRTQAIPHALRIMEDAYRQLDMPQMADDIARVYALNYAEGRLSKDEDYERTVMEEVWDFIGFDK”, the protein production entry is “failed”.

For “MGGAGLDNAQNVRNQTQNQTKPIHVSDRNEAFNRHNENEQFGYVRYQKEQFDGEQQKTPVMNREETAHMISSLTVQLPHIQDAATLVTDREALVVYKTDSKNRELTADQVKKTAASVIPRYYHVYISDNPNHMQSVENYSNLGSGSRDIREIMSGTIQEMKTSPQGSPVSENENANGETRQDMKIDRNDKNARLEHHHHHH”, the protein production result was “not failed”.

Regarding “MGGGNAQKSAMARAKNLEKAKAAGKGSQLEANKKAMSIQCKVCMQTFICTTSEVKCREHAEAKHPKADVVACFPHLKK”, the protein production entry is recorded as “not failed”.

With “MGGNETRELPIINLSDKNLKQNTELWSFTRDSVREAMEHHGWFVAEYNNFPTGLHQSILEAAKELLDLPVEIKLKNENHKAGHGYITMMSDGQPVHEGLGIDQVNDVQQCRGFSRLMWPDDHDDNDRFCETVHAYAKMQAELEQLVIRMLFESYNVEKYTEKYIGGTRYLLRLLKYRRLPNGEPNRKFISHTDKSFISILHQNHITGLMLKSEKEDVWYHFTPSPTRFVVIAGDAIMAWSNDRIKACYHKVEMESVEMRYSLGFFSFQEGMISTPEEMVDKDHPLAYNPFHHDGLLEYYETLEVHLKAHRTMTKAYCGIP”, the protein production result is recorded as “failed”.

Turning to “MGGRVTDVYNAFVPLVHISNNSTSDTNKAKENIISKLLDILSGIFVPIIHAIIGAGLLKGILIFLNFYHLVSPATSTYKLLSVFSDSAFYFMPILLAYSSAKKFKTNKYVAVAIAGILVHPELISMMSKSASVKFFGIPFTSATYSTSVLPIILGVWVMSYIERGLNKIIPKILRTVLVPLFTLLITAPIILGILGPIGTIVGDAIGQGTVQLYLHYGVIAGILVGAAYPFLVIMGMHVGFTPVMVQSLSKYGVDYMMGIFVASNSAEAGATTAVWLKTKNKQLKEIAGSSALNAIIGVTEPALFGVTSKLKKPLIAVSIGGAVGGGIAGLFKVAAQGAGTGPIAGIPLFFGKTFIWFIISCLVSYVVSFILAYVIGFEDIPNPEDLSQKNSMDNHEKIVTTVVANQSVADPVNGNVIPLSEVKDNVFSSKMMGDGAAIVPNDNKIYAPFDGVVELVFETKHAIGLKSYDGCELLIHVGLDTVELKGKHFISHVIKDQKVKKGDLLLEFDREAISKEGYDTTIPVIVTNSKDFENITKTKKKQLQHGEELLKLTAKNKEN”, the protein production result was “failed”.

As to “MGHGIEVLPDLFCYTIQIVNICFVGNPESNDFVLVDAGMPKCANEIISVAEDRFGTNSRPKAIILTHGHFDHVGGIIELIKYWDVPVYAHQMEIPFLTGQQSYPEPDSTVEGGMIAKMSPLFPNEPIDLGNSIKVLPTDGTVPHMPDFRWIHTPGHTPGHISLFREKDRTLIAGDAFVTVKQEYLYKVITQEQEISGPPRYLTTDWKAAKESVITLEKLKPLSAVTGHGIPMSGELLSTSLKTLAQEFDKIAVPDYGKYVDKKLEHHHHHH”, the protein production entry is given as “failed”.

As to “MGHHHHHHSHAAAMANNLQKGSAGPMRLYVGSLHFNITEDMLRGIFEPFGRIESIQLMMDSETGRSKGYGFITFSDSECAKKALEQLNGFELAGRPMKVGHVTERTD”, the protein production entry is recorded as “not failed”.

With “MGHHHHHHSHCSSCSTPLYDQGGPVEILPFLYLGSAYHASRKDMLDALGITALINVSANCPNHFEGHYQYKSIPVEDNHKADISSWFNEAIDFIDSIKNAGGRVFVHCQAGISRSATICLAYLMRTNRVKLDEAFEFVKQRRSIISPNFSFMGQLLQFESQVLAPHCSAEAGSPAMAVLDRGTSTTTVFNFPVSIPVHSTNSALSYLQSPITTSPSC”, the protein production entry is recorded as “failed”.

With “MGHHHHHHSHDDLEVGSIYRGKITRVEKYGVFVSLNSHVWGLMRGLFPDYKVGDELFVRVSQVKPYKGEVDMIPASIKGP”, the protein production entry is on record as “not failed”.

“MGHHHHHHSHEELPPTTELEEGLRNGVYLAKLAKFFAPKMVSEKKIYDVEQTRYKKSGLHFRHTDNTVQWLRAMESIGLPKIFYPETTDVYDRKNIPRMIYCIHALSLYLFKLGIAPQIQDLLGKVDFTEEEISNMRKELEKYGIQMPSFSKIGGILANELS”: the protein production result was “failed”.

For “MGHHHHHHSHELLVVGSRPELGRWEPRGAVRLRPAGTAAGDGALALQEPGLWLGEVELAAEEAAQDGAEPGRVDTFWYKFLKREPGGELSWEGNGPHHDRCCTYNENNLVDGVYCLPIGHWIEATGHTNEMKHTTDFYFNIAGHQAMHYSRILPNIWLGSCPRQVEHVTIKLKHELGITAVMNFQTEWDIVQNSSGCNRYPEPMTPDTMIKLYREEGLAYIWMPTPDMSTEGRVQMLPQAVCLLHALLEKGHIVYVHCNAGVGRSTAAVCGWLQYVMGWNLRKVQYFLMAKRPAVYI”, the protein production result is given as “failed”.

For “MGHHHHHHSHLCTNFFIFTGGPGSGKTAVLNELNTWGYLTVSEVARSIIQKQQADGGDAIHTGNRKAFRDLMLEQSIADYCKMQSEEKIVFFDRGIPDLYGYSKAFCGEASKEVNEAVGRFRYNKTVFIFPPWPEIYENDDERQQDYQEALQTYYAVKEGYFDCGYVLLEVPKCPIKDRANFIFQMISKNG”, the protein production entry is “not failed”.
